Results as given in the supplement of paper PMC9732359.
± gives the uncertainty stated by the source.

Test: protein stability index of a GFP-peptide fusion (yeast GPS) (PSI 1-4); higher = more stable; sorted into four equal gates, so the index is relative within each strain
How it was run: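 For each peptide, the protein stability index sums the read frequency in every gate after multiplying it by the gate number. Read frequencies came from plasmids that were PCR-amplified from each gate and Illumina-sequenced, with reads assigned to strains by barcodes. The gates were four equal bins of GFP/Cherry fluorescence ratio applied to mid-log yeast in leucine-free medium carrying a pooled library of tiled 17-residue yeast protein peptides fused downstream of GFP on a Cherry-expressing plasmid.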

ESKQDGLSILFLTGQFA [YML103C/NUP188]
protein stability index (doa10∆): 2.79 ± 0.078
protein stability index (pdr5∆): 2.57 ± 0.062
protein stability index (san1∆): 2.88 ± 0.059
protein stability index (ubr1∆): 2.72 ± 0.063

ESLTFNEFQLQWGKYQT [SWI1]
protein stability index (doa10∆): 2.86 ± 0.049
protein stability index (pdr5∆): 2.93 ± 0.047
protein stability index (san1∆): 2.67 ± 0.045
protein stability index (ubr1∆): 2.91 ± 0.034

ESNKRYRFFKKISEDPV [SNF12]
protein stability index (doa10∆): 3.16 ± 0.16
protein stability index (pdr5∆): 2.97 ± 0.16
protein stability index (san1∆): 2.99 ± 0.18
protein stability index (ubr1∆): 2.69 ± 0.061

ESPLSVAIQQGDIKPEF [YML103C/NUP188]
protein stability index (doa10∆): 2.23 ± 0.11
protein stability index (pdr5∆): 1.44 ± 0.08
protein stability index (san1∆): 1.95 ± 0.11
protein stability index (ubr1∆): 2.38 ± 0.075

ESQEKYMEPFDLDLNEQ [NSL1]
protein stability index (doa10∆): 3.29 ± 0.068
protein stability index (pdr5∆): 3.21 ± 0.057
protein stability index (san1∆): 3.35 ± 0.041
protein stability index (ubr1∆): 3.3 ± 0.045

ESQYPIVTEQPSAEIRE [SWP82]
protein stability index (doa10∆): 2.56 ± 0.04
protein stability index (pdr5∆): 2.73 ± 0.042
protein stability index (san1∆): 2.57 ± 0.047
protein stability index (ubr1∆): 2.56 ± 0.039

ESSKLMTVTKVSLPEGS [BRR2]
protein stability index (doa10∆): 2.93 ± 0.22
protein stability index (pdr5∆): 2.33 ± 0.11
protein stability index (san1∆): 3.19 ± 0.1
protein stability index (ubr1∆): 2.63 ± 0.073

ESVPTPANAEPQAVTIT [ITC1]
protein stability index (doa10∆): 2.88 ± 0.084
protein stability index (pdr5∆): 2.92 ± 0.075
protein stability index (san1∆): 2.62 ± 0.063
protein stability index (ubr1∆): 3.18 ± 0.16

ETAKMIENMTKEKVSNG [FAS2]
protein stability index (doa10∆): 3.41 ± 0.3
protein stability index (pdr5∆): 3.28 ± 0.13
protein stability index (san1∆): 3.57 ± 0.091
protein stability index (ubr1∆): 3.02 ± 0.11

ETEEIDPELLRSYIFGG [RPL5]
protein stability index (doa10∆): 3.22 ± 0.073
protein stability index (pdr5∆): 3.44 ± 0.082
protein stability index (san1∆): 3.3 ± 0.046
protein stability index (ubr1∆): 3.23 ± 0.075

ETELPTLSLPDSQDYIL [SMC1]
protein stability index (doa10∆): 3.1 ± 0.043
protein stability index (pdr5∆): 3.19 ± 0.054
protein stability index (san1∆): 3.11 ± 0.037
protein stability index (ubr1∆): 3.29 ± 0.055

ETHETNISNAKLANFFS [YAR002W/NUP60]
protein stability index (doa10∆): 3.03 ± 0.12
protein stability index (pdr5∆): 3.15 ± 0.11
protein stability index (san1∆): 3.15 ± 0.073
protein stability index (ubr1∆): 3.2 ± 0.13

ETHSKKRKKEANEEPNT [ITC1]
protein stability index (doa10∆): 2.69 ± 0.096
protein stability index (pdr5∆): 2.6 ± 0.072
protein stability index (san1∆): 3.13 ± 0.058
protein stability index (ubr1∆): 2.17 ± 0.058

ETKSWINESAENFSNGI [MED1]
protein stability index (doa10∆): 3.04 ± 0.062
protein stability index (pdr5∆): 2.72 ± 0.047
protein stability index (san1∆): 2.74 ± 0.056
protein stability index (ubr1∆): 2.77 ± 0.042

ETNGYDPFSIYGFSNKE [SNF5]
protein stability index (doa10∆): 1.64 ± 0.047
protein stability index (pdr5∆): 1.51 ± 0.075
protein stability index (san1∆): 2.12 ± 0.083
protein stability index (ubr1∆): 2.03 ± 0.063

ETPEGQACGLVKNLSLM [RPB2]
protein stability index (doa10∆): 1.67 ± 0.13
protein stability index (pdr5∆): 2.25 ± 0.12
protein stability index (san1∆): 3.01 ± 0.11
protein stability index (ubr1∆): 3.03 ± 0.13

ETQEIKENDTVMNTKLL [ESC2]
protein stability index (doa10∆): 2.85 ± 0.086
protein stability index (pdr5∆): 3 ± 0.063
protein stability index (san1∆): 2.88 ± 0.1
protein stability index (ubr1∆): 3.18 ± 0.055

ETRPAQVILPMSPNHGT [FAS2]
protein stability index (doa10∆): 2.43 ± 0.042
protein stability index (pdr5∆): 2.38 ± 0.04
protein stability index (san1∆): 2.46 ± 0.071
protein stability index (ubr1∆): 2.36 ± 0.036

ETTIDDLPISSTDNEAI [SMC1]
protein stability index (doa10∆): 2.67 ± 0.069
protein stability index (pdr5∆): 2.7 ± 0.087
protein stability index (san1∆): 2.66 ± 0.053
protein stability index (ubr1∆): 2.97 ± 0.058

EVAVPDRVAKVLTYPEK [RPO31]
protein stability index (doa10∆): 2.97 ± 0.075
protein stability index (pdr5∆): 3.06 ± 0.1
protein stability index (san1∆): 2.88 ± 0.078
protein stability index (ubr1∆): 3.23 ± 0.078

EVEPALLLLQDYVTNPD [RPN1]
protein stability index (pdr5∆): 1.55 ± 0.11
protein stability index (ubr1∆): 1.14 ± 0.17

EVTDKNYYYLFDKKSFF [PRP8]
protein stability index (doa10∆): 2.92 ± 0.056
protein stability index (pdr5∆): 2.44 ± 0.043
protein stability index (san1∆): 2.9 ± 0.041
protein stability index (ubr1∆): 2.84 ± 0.04

EVTEGQAEATEWAEENA [RPS0B]
protein stability index (doa10∆): 2.44 ± 0.27
protein stability index (pdr5∆): 3.22 ± 0.22
protein stability index (san1∆): 2.44 ± 0.17
protein stability index (ubr1∆): 2.44 ± 0.14

EVTIEDALKVVLRTALV [RPS12]
protein stability index (doa10∆): 3.35 ± 0.11
protein stability index (pdr5∆): 3.31 ± 0.091
protein stability index (san1∆): 3.35 ± 0.099
protein stability index (ubr1∆): 3.11 ± 0.067

EVTKEEDIIANYASVYP [RRP43]
protein stability index (doa10∆): 2.77 ± 0.07
protein stability index (pdr5∆): 2.95 ± 0.057
protein stability index (san1∆): 3.06 ± 0.094
protein stability index (ubr1∆): 3.06 ± 0.055

EVTKGEKTYTKAPKIQR [RPS6A]
protein stability index (doa10∆): 3.17 ± 0.18
protein stability index (pdr5∆): 3.19 ± 0.14
protein stability index (ubr1∆): 3.53 ± 0.13

EVTKSSHVENLEEKLYQ [YIL149C/MLP2]
protein stability index (doa10∆): 2.76 ± 0.073
protein stability index (pdr5∆): 2.97 ± 0.072
protein stability index (san1∆): 2.93 ± 0.052
protein stability index (ubr1∆): 2.98 ± 0.048

EVYGINEESTNERLEIN [SIR4]
protein stability index (doa10∆): 3.29 ± 0.16
protein stability index (pdr5∆): 3.25 ± 0.13
protein stability index (san1∆): 3.22 ± 0.16
protein stability index (ubr1∆): 3.15 ± 0.14

EWKSEFVVPTFGQDVSP [SNM1]
protein stability index (doa10∆): 2.25 ± 0.052
protein stability index (pdr5∆): 2.29 ± 0.055
protein stability index (san1∆): 3.04 ± 0.063
protein stability index (ubr1∆): 2.24 ± 0.05

EYNEDSRLCTPIPVQGE [RPN13]
protein stability index (san1∆): 2.27 ± 0.14
protein stability index (ubr1∆): 3.11 ± 0.28

EYQIVYYNPQAGTKITI [RGR1]
protein stability index (doa10∆): 2.15 ± 0.13
protein stability index (pdr5∆): 2.1 ± 0.22
protein stability index (san1∆): 2.12 ± 0.13
protein stability index (ubr1∆): 2.45 ± 0.1

FAGVASMNVTLGVPRIK [RPO31]
protein stability index (doa10∆): 2.82 ± 0.095
protein stability index (pdr5∆): 2.78 ± 0.086
protein stability index (san1∆): 2.94 ± 0.079
protein stability index (ubr1∆): 2.76 ± 0.064

FAISMGYLFKVSALDKC [ECM29]
protein stability index (pdr5∆): 1.67 ± 0.21
protein stability index (san1∆): 1.91 ± 0.23
protein stability index (ubr1∆): 2.13 ± 0.13

FANYKLLLKKIIKDYVL [SRB4]
protein stability index (doa10∆): 2.41 ± 0.069
protein stability index (pdr5∆): 2.24 ± 0.068
protein stability index (san1∆): 1.97 ± 0.09
protein stability index (ubr1∆): 1.86 ± 0.035

FDDILKVGAEMMMQQQL [MED2]
protein stability index (doa10∆): 2.66 ± 0.11
protein stability index (pdr5∆): 2.44 ± 0.093
protein stability index (san1∆): 2.53 ± 0.13
protein stability index (ubr1∆): 2.46 ± 0.086

FDDLLKPVYKGKKLTDE [RET1]
protein stability index (pdr5∆): 2.85 ± 0.27
protein stability index (san1∆): 3.32 ± 0.12

FDISMADLSSSEEEEDE [SSN2]
protein stability index (doa10∆): 3.14 ± 0.079
protein stability index (pdr5∆): 3.13 ± 0.077
protein stability index (san1∆): 3.11 ± 0.1
protein stability index (ubr1∆): 2.45 ± 0.063

FDKVIYHLHPTFANPNR [TAF14]
protein stability index (doa10∆): 1.49 ± 0.091
protein stability index (pdr5∆): 1.44 ± 0.064
protein stability index (san1∆): 1.43 ± 0.22
protein stability index (ubr1∆): 1.19 ± 0.057

FDNVASVFMPLIFIACN [ECM29]
protein stability index (doa10∆): 2.9 ± 0.048
protein stability index (pdr5∆): 2.72 ± 0.038
protein stability index (san1∆): 2.57 ± 0.045
protein stability index (ubr1∆): 2.71 ± 0.032

FDPVYTTVITVFLEFSL [YML103C/NUP188]
protein stability index (doa10∆): 1.45 ± 0.043
protein stability index (pdr5∆): 1.69 ± 0.043
protein stability index (san1∆): 1.8 ± 0.072
protein stability index (ubr1∆): 1.62 ± 0.023

FDRLVAGQIPTGWNAKT [FAS2]
protein stability index (doa10∆): 2.15 ± 0.18

FDSVIVENLTVAQECIA [SMC1]
protein stability index (doa10∆): 1.69 ± 0.089
protein stability index (pdr5∆): 1.62 ± 0.11
protein stability index (san1∆): 1.84 ± 0.15
protein stability index (ubr1∆): 1.27 ± 0.061

FDVNNIDMHLIYGVEWL [YDL116W/NUP84]
protein stability index (doa10∆): 2.12 ± 0.059
protein stability index (pdr5∆): 2.09 ± 0.049
protein stability index (san1∆): 1.92 ± 0.074
protein stability index (ubr1∆): 2.27 ± 0.044

FEAQIDSVEFIFQAKRN [RPN10]
protein stability index (doa10∆): 2.32 ± 0.11
protein stability index (pdr5∆): 2.67 ± 0.082
protein stability index (san1∆): 2.45 ± 0.13
protein stability index (ubr1∆): 2.66 ± 0.1

FEETKLSTTPTKSNRRV [SIR4]
protein stability index (doa10∆): 2.65 ± 0.1
protein stability index (pdr5∆): 2.83 ± 0.12
protein stability index (san1∆): 2.73 ± 0.12
protein stability index (ubr1∆): 2.78 ± 0.15

FELCSLGDKELWPVAIG [YJR042W/NUP85]
protein stability index (ubr1∆): 2.49 ± 0.28

FENCYLEGNDIHALAAK [FAS1]
protein stability index (doa10∆): 2.83 ± 0.053
protein stability index (pdr5∆): 3.06 ± 0.049
protein stability index (san1∆): 2.88 ± 0.044
protein stability index (ubr1∆): 2.69 ± 0.041

FEQKGSQTTTNDSKEES [YLR335W/NUP2]
protein stability index (doa10∆): 3.27 ± 0.12
protein stability index (pdr5∆): 3.13 ± 0.077
protein stability index (san1∆): 2.98 ± 0.11
protein stability index (ubr1∆): 3.23 ± 0.05

FEYLATVMYQRRSKMNP [PRE4]
protein stability index (doa10∆): 2.11 ± 0.12
protein stability index (pdr5∆): 2.72 ± 0.21
protein stability index (san1∆): 2.6 ± 0.15
protein stability index (ubr1∆): 2.57 ± 0.28

FEYSKYRPLTPSSEVYS [RRP6]
protein stability index (doa10∆): 3.07 ± 0.086
protein stability index (pdr5∆): 3.01 ± 0.071
protein stability index (san1∆): 2.87 ± 0.053
protein stability index (ubr1∆): 2.83 ± 0.056

FFTNPNKKRPSSKKVFS [YOR098C/NUP1]
protein stability index (doa10∆): 2.85 ± 0.059
protein stability index (pdr5∆): 3.1 ± 0.054
protein stability index (san1∆): 3.06 ± 0.046
protein stability index (ubr1∆): 3 ± 0.05

FGAKMSRTLILSILNEI [SIN4]
protein stability index (doa10∆): 1.84 ± 0.063
protein stability index (pdr5∆): 1.42 ± 0.044
protein stability index (san1∆): 1.36 ± 0.088
protein stability index (ubr1∆): 1.68 ± 0.039

FGAKSDENKAGATSKPA [YJL041W/NSP1]
protein stability index (doa10∆): 3.25 ± 0.11
protein stability index (pdr5∆): 3.23 ± 0.1
protein stability index (san1∆): 3.44 ± 0.065
protein stability index (ubr1∆): 3.25 ± 0.086
